Like-named read-outs stand apart in the source and are kept apart here. Blank lines part the entries; values can stand above or below the substance they belong to. Ends that are not written are not given here.
Legend:
Type in all cases: cell-based
[1] = biological target: T1, human GLP-1 receptor (hGLP-1r) (Homo sapiens, UniProt P43220); assay: BSA-cAMP assay, cells expressing human GLP-1 receptor; settings: BSA-cAMP assay
T1 construct: expressed in transfected cells
Experimental: (§1) One basic cAMP assays was performed, differing in the medium used for the assay, the “BSA-cAMP assay”:
(§2) BSA-based assay medium: 0.1% bovine serum albumin (BSA) in
(§3) In certain aspects, the assay can also be carried out in medium supplemented with serum albumin that corresponds to the receptor being tested, e.g., human serum albumin for testing cAMP activity at hGIPr or hGLP-1r, rat serum albumin for testing cAMP activity at rGIPr or rGLP-1r, and so on. […] All sample dilutions were made in duplicate.
(§4) A frozen cryo-vial of cells expressing the receptor of interest was thawed rapidly in a water-bath, transferred to pre-warmed assay media and spun at 240×g for 5 minutes. Cells were re-suspended in assay buffer at an optimized concentration (e.g., hGLP-1r and hGIPr cells at 0.5×10^5 cells/ml).
(§5) To this, 5 μL cell suspension was added and the plates incubated at room temperature for 30 minutes.
(§6) cAMP levels were measured using a commercially available cAMP dynamic 2 HTRF kit (Cisbio, Cat #62AM4PEJ), following the two step protocol as per manufacturer's recommendations. In brief; anti-cAMP cryptate (donor fluorophore) and cAMP-d2 (acceptor fluorophore) were made up separately by diluting each 1/20 in conjugate & lysis buffer provided in the kit. 5 μL anti-cAMP cryptate was added to all wells of the assay plate, and 5 μL cAMP-d2 added to all wells except non-specific binding (NSB) wells, to which conjugate and lysis buffer was added. […] Data was transformed to % Delta F as described in manufacturer's guidelines and then transformed to percent activation of maximal native agonist response and analysed by 4-parameter logistic fit to determine EC50 values.
(§7) We used unconstrained 4 parameter logistic fit of data, curve mid-point to determine EC50. This was tested on two occasions, not two batches.

[2] = biological target: T2, human glucagon receptor (GCGr) (Homo sapiens, UniProt P47871); assay: BSA-cAMP assay, cells expressing human glucagon receptor
T2 construct: expressed in transfected cells; host or cells: HEK293s or CHO cells
Experimental: as §1, §2, §3, §4, §5, §6, §7

[3] = biological target: T3, human GIP receptor (hGIPr) (Homo sapiens, UniProt P48546); assay: BSA-cAMP assay, cells expressing human GIP receptor; settings: BSA-cAMP assay
T3 construct: expressed in transfected cells
T3 sequence (P48546 22-466): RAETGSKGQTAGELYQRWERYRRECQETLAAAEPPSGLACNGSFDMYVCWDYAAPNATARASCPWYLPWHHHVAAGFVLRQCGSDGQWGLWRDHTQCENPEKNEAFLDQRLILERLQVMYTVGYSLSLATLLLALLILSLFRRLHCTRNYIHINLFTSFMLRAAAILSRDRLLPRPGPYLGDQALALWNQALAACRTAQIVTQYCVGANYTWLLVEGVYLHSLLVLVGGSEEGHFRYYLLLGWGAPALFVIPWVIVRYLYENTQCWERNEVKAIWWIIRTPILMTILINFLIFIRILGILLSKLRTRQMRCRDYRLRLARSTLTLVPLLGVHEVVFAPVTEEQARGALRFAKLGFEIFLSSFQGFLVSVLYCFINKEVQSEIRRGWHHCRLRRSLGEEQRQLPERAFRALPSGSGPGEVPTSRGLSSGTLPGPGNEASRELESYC
Experimental: For human GIPr, two different lines were used, shown as “hGIPr” and “hGIPr (C3)” in Table 11.
as §1, §2, §3, §4, §5, §6, §7

[4] = biological target: T4, rat GLP-1 receptor (rGLP-1r) (Rattus norvegicus, UniProt P32301); assay: BSA-cAMP assay, cells expressing rat GLP-1 receptor; settings: Batch 1; BSA-cAMP assay; read-out: rGLP1r cAMP activity EC50
T4 construct: expressed in transfected cells; host or cells: HEK293s or CHO cells
T4 sequence (P32301 22-463): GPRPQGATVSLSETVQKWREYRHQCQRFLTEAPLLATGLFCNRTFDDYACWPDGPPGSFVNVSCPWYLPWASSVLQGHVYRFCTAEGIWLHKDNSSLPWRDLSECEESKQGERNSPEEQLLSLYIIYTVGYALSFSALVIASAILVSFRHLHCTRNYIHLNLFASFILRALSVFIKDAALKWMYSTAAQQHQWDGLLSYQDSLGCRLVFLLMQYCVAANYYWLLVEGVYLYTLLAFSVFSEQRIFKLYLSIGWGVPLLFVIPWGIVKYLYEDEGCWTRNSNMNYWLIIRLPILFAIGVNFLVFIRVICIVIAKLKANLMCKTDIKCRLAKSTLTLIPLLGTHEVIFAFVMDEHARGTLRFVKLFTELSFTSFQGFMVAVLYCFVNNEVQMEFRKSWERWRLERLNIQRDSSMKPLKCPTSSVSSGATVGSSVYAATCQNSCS
Experimental: as §1, §2, §3, §4, §5, §6, §7
(§8) In order to be able to carry out in vivo studies in rodents, IP088 was tested for potency against the mouse receptors mGIPr and mGLP-1r as well as the rat receptors rGIPr and rGLP-1r, using cells expressing the respective receptors in the cAMP assay described above.

[5] = biological target: T5, mouse GLP-1 receptor (mGLP-1r) (Mus musculus, UniProt O35659); assay: BSA-cAMP assay, cells expressing mouse GLP-1 receptor; settings: Batch 1; BSA-cAMP assay; read-out: mGLP1r cAMP activity EC50
T5 construct: expressed in transfected cells; host or cells: HEK293s or CHO cells
T5 sequence (O35659 22-463): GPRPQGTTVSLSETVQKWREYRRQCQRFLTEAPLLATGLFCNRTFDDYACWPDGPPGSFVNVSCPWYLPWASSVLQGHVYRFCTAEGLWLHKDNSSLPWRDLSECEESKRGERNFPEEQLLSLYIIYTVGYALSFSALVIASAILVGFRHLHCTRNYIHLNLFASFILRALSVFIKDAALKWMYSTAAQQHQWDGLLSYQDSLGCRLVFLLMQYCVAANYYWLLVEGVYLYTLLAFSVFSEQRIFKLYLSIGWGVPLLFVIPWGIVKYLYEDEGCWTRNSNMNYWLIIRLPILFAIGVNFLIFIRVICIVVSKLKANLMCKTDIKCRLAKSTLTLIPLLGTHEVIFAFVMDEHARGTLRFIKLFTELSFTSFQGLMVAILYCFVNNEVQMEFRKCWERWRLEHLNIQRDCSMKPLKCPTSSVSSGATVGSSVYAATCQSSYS
Experimental: as §1, §2, §3, §4, §5, §6, §7, §8

[6] = biological target: T6, rat GIP receptor (rGIPr) (Rattus norvegicus, UniProt P43219); assay: BSA-cAMP assay, cells expressing rat GIP receptor; settings: Batch 1; BSA-cAMP assay; read-out: rGIPr cAMP activity EC50
T6 construct: expressed in transfected cells; host or cells: HEK293s or CHO cells
T6 sequence (P43219 19-455): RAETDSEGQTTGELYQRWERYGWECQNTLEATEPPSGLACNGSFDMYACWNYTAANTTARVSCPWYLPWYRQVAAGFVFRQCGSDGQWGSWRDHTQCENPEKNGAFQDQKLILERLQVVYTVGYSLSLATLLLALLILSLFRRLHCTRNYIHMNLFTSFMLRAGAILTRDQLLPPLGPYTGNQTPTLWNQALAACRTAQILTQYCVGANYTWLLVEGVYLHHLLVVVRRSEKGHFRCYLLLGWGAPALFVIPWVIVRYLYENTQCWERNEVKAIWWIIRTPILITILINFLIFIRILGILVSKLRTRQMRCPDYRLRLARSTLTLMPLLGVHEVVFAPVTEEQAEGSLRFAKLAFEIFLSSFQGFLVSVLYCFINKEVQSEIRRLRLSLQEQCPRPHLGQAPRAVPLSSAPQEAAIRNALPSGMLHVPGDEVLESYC
Experimental: as §1, §2, §3, §4, §5, §6, §7, §8

[7] = biological target: T7, mouse GIP receptor (mGIPr) (Mus musculus, UniProt Q0P543); assay: BSA-cAMP assay, cells expressing mouse GIP receptor; settings: Batch 1; BSA-cAMP assay; read-out: mGIPr cAMP activity EC50
T7 construct: expressed in transfected cells; host or cells: HEK293s or CHO cells
T7 sequence (Q0P543 19-460): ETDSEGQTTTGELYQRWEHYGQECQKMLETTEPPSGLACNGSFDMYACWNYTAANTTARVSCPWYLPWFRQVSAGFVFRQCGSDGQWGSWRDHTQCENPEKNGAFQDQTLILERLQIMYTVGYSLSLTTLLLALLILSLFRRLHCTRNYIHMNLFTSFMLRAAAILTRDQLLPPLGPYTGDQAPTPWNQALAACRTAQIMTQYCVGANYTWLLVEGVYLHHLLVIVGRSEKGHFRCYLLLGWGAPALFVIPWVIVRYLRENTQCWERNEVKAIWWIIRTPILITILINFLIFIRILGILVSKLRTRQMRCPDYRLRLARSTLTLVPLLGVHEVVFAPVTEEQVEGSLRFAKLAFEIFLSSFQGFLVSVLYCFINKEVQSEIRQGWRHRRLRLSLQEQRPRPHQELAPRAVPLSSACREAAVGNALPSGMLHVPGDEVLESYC
Experimental: as §1, §2, §3, §4, §5, §6, §7, §8

[8] = Batch 1, read-out: hGLP1r cAMP activity EC50
[9] = Batch 1, read-out: hGCGr cAMP activity EC50
[10] = Batch 1, read-out: hGIPr cAMP activity EC50
[11] = batch 1 unless a batch is given, read-out: cAMP activity hGLP1r (EC50)

T2 sequence (P47871 26-477): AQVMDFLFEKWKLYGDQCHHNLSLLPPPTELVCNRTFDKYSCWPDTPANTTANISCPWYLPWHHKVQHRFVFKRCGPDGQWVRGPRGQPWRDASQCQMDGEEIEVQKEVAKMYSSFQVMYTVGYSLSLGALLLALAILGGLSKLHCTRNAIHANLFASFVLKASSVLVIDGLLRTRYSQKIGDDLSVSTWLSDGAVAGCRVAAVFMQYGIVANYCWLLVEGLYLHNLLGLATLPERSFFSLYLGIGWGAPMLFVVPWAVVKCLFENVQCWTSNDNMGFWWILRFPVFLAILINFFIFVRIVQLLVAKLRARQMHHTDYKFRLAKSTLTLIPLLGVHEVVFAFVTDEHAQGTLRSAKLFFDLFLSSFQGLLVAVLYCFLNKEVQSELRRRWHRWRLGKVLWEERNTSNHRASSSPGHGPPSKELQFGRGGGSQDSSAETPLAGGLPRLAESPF
T1 sequence (P43220 24-463): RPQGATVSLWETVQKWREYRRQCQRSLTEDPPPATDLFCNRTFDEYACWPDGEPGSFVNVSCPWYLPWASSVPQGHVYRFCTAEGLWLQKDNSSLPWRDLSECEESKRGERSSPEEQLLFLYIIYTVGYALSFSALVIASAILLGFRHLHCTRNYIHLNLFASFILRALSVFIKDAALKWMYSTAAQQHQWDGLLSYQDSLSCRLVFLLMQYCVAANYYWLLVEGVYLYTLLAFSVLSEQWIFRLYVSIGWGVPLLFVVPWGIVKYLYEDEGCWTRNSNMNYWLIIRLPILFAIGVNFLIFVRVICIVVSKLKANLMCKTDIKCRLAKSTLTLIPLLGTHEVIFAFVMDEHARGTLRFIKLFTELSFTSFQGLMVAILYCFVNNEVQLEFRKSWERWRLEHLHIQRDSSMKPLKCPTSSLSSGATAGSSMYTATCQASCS

Substance: IP407: Fc fusion, IgG1-TM, SEQ ID NO:384; agonist peptide YSEGTFTSDYSKLLEEEAIRLFIEWLLAGG (YSEGTFTSDYSKLLEEEAIRLFIEWLLAGGGGGGSGGGGSGGGGSGGGGSATHTCPPC)
- EC50 [1, 8]: 0.25 nM
- EC50 [2, 9]: > 163 nM
- EC50 [7]: 2.3 nM

Substance: IP231 (HGEGTFTSDVSSYLEEQAAKEFIAWLVKGGGGGGSGGGGSGGGGSGGGGSATHTCPPC; also: forms dimer via hinge disulfides)
- EC50 [1, 11]: 0.067 nM

Substance: IP319 (YSEGTFTSDYSKLLEAAAAAAFAAWLAAAAGGGGGSGGGGSGGGGSGGGGSACPPC)
- EC50 ([1]; Batch 2, read-out: hGLP1r cAMP activity EC50): 170 nM
- EC50 ([2]; Batch 2, read-out: hGCGr cAMP activity EC50): > 445 nM

Substance: IP413: Fc fusion, IgG1-TM, SEQ ID NO:388; agonist peptide YSEGTFTSDYSKLLEEEASRLFIEWLLAGG (YSEGTFTSDYSKLLEEEASRLFIEWLLAGGGGGGSGGGGSGGGGSGGGGSATHTCPPC)
- EC50 [4]: 0.048 nM
- EC50 [5]: 8.9 nM
- EC50 [1, 8]: 0.19 nM
- EC50 [6]: > 113000 pM
- EC50 [2, 9]: 7.6 nM
- EC50 [7]: 3.7 nM

Next, values leading:

- EC50 [1, 8]: 20 nM
- EC50 [2, 9]: > 3210 nM
- EC50 [3, 10]: 1 nM
Substance: IP353 (YSEGTFTSDYAAAAEAAAAAAFAAWLAKAAGGGGGSGGGGSGGGGSGGGGSACPPC)

- EC50 [4]: > 16600 nM
- EC50 [5]: > 16600 nM
- EC50 [1, 8]: > 9130 nM
- EC50 [6]: 8.5 pM
- EC50 [2, 9]: 540 nM
- EC50 [7]: 0.03 nM
- EC50 [3, 10]: 0.0034 nM
Substance: IP386 (YSEGTFISDYSIAMDKIHQQDFVNWLLAQKGGGGGSGGGGSGGGGSGGGGSACPPC)

- EC50 [1, 11]: 0.058 nM
- EC50 ([3]; batch 1 unless a batch is given, read-out: cAMP activity hGIPr (EC50)): 310 nM
Substance: IP238 (HGEGTFTSDVSSYLEGQAAKEFIAWLVKGGGGGGSGGGGSGGGGSAESKYGPPCPPC; also: forms dimer via hinge disulfides)
